US20030235860A1, “Interactions between AR, ER, TR2, and TR4” (priority 1999, published 2003)

T1: AR (Homo sapiens, UniProt P10275, DEL79-80/DUP473-473)
T1 sequence (P10275 with tags, fused parts or gaps DEL79-80/DUP473-473): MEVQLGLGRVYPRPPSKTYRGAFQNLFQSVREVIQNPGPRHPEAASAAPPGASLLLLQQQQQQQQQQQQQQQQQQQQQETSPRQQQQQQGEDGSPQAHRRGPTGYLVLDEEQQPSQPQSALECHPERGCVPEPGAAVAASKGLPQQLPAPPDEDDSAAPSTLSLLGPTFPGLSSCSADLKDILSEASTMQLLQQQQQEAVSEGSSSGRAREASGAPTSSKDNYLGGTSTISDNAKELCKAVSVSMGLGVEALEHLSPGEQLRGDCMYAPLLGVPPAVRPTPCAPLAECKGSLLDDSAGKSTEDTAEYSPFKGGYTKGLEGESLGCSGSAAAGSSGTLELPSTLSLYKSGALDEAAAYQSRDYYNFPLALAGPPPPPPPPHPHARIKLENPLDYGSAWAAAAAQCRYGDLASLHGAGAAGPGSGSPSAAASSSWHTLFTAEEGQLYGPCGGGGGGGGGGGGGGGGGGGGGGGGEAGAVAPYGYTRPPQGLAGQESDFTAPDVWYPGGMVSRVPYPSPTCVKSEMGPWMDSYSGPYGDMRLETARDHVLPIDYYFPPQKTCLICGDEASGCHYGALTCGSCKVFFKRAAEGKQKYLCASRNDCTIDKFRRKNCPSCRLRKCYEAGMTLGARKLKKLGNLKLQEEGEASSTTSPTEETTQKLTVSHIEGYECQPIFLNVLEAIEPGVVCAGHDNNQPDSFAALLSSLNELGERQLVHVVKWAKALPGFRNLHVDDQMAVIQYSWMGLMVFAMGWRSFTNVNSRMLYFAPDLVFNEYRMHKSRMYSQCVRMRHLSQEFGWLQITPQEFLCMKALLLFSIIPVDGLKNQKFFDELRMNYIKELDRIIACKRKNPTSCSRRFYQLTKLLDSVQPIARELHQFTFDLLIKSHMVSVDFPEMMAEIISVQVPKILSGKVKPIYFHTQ


Biological target: T1, AR
Experiment: AR-mediated transactivation reporter assay (MMTV / PSA reporters)
Format: cell-based
Parameters: A full-length AR(pSG5AR) was co-transfected with GAL4-TR4E; expressed in transfected cells; host or cells: COS, H1299, CHO, DU145, PC-3
Settings: for Transactivation by the AR receptor: similar procedures, no details given; for Activity AR (effect of regulator on transcription activity): Table 5
Description: Cells were routinely maintained in DMEM with 10% heat-inactivated fetal bovine serum. The cells were transfected using a modified calcium phosphate precipitation method, Mizokami, & Chang, J: Biol. Chem. 269,25655-25659 (1994), or SuperFect (Qiagen). To normalize the transfection efficiency, the (3-galactosidase expression ver and pRL-TK were co-transfected in CAT assay and in Dual-luciferase reporter assay system (Promega), respectively.
Like TR4, AR itself acts as a transcription factor to activate many androgen target genes. 500 ng of MMTV-Luc (FIG. 4A), or PSA-Luc (FIG. 4B), were co-transfected with 40 ng pCMV-AR (lane 2-3) with increasing amounts of pCMX-TR4 (as indicated in FIG. 4). […] After 16-18 hours incubation, cells were harvested for Dual-rnciferase reporter assay. As expected, in COS, H1299, and CHO cells, AR activated MMTV luciferase activity in a DHT-dependent manner (FIG. 4A, lanes 2 and 3), which could then be repressed by the addition of TR4 (lanes 6 to 8). […] Similar suppression effects also occurred when the MMTV-ruciferase reporter was replaced with the PSA-Iuciferase reporter, another AR target gene (FIG. 4B).
As GR and PR can also induce MMTV—luciferase reporter, Beato, M., Ce//56, 335-344 (1989), determining if TR4 could also repress OR- or PR-mediated transactivation was analyzed. Three μg of MMTV-Luc was co-transfected with 4 μg of pCMX-TR4 in the presence of 1 μg of pSG5AR, pSG5GR, or pSG5PR by modified calcium-phosphate method. […] Dual-luciferase reporter assays were performed. PRL-TK was used to normalize the transfection efficiency. […] Similar results were observed when the same experiments of AR-mediated transactivation were repeated in DU145 cells.
Human prostate cancer PC-3 cells were maintained in DMEM containing penicillin (25 units/ml), streptomycin ([…]), and 5% FCS. Human prostate cancer LNCaP cells were maintained in RPMI 1640 containing penicillin (25 units/ml), streptomycin ([…]), and 10% FCS. PC-3 cell were transfected using the calcium phosphate precipitation method as described previously [Mu X. M. et al. (1998) Endocrine 9:27-32], and LNCaP cells were transfected by using Superfect™ according to the manufacturer's procedures (Qiagen, Chatsworth, Calif.). CAT assay was performed as described previously [Lee Y. et al. (1999) Proc Natl Acad Sci USA 96:14724-14729], and is herein incorporated by reference at least for material related to the CAT assays].

Molecule | Transactivation by the AR receptor | AR-activated MMTV luciferase activity (similar with PSA-luciferase) (COS, H1299 and CHO cells, 10 nM DHT, increasing pCMX-TR4) | AR-mediated MMTV-luciferase transactivation (H1299 cells (similar in DU145), 4 μg pCMX-TR4, 10 nM DHT) | Activity AR (effect of regulator on transcription activity) | MMTV-CAT and PSA-CAT activity (PC-3 cells, 10 nM DHT, 2, 4 and 7 μg pCMV-TR2) | AR-mediated transcription (MMTV-Luc) (PC-3 cells, Example 2)
RXR: retinoid X receptor, another member of the steroid receptor superfamily | suppress | – | – | – | – | –
TR4: human testicular orphan nuclear receptor 4, SEQ ID NO:16; expressed from plasmid or in vitro translated (protein) MTSPSPRIQIISTDSAVASPQRIQGSEPASGPLSVFTSLNKEKIVTDQQTGQKIQIVTAVDASGSPKQQFILTSPDGAGTGKVILASPETSSAKQLIFTTSDNLVPGRIQIVTDSASVERLLGKTDVQRPQVVEYCVVCGDKASGRHYGAVSCEGCKGFFKRSVRKNLTYSCRSSQDCIINKHHRNRCQFCRLKKCLEMGMKMESVQSERKPFDVQREKPSNCAASTEKIYIRKDLRSPLIATPTFVADKDGARQTGLLDPGMLVNIQQPLIREDGTVLLATDSKAETSQGALGTLANVVTSLANLSESLNNGDTSEIQPEDQSASEITRAFDTLAKALNTTDSSSSPSLADGIDTSGGGSIHVISRDQSTPIIEVEGPLLSDTHVTFKLTMPSPMPEYLNVHYICESASRLLFLSMHRARSIPAFQGLGQDCNTSLVRACWNELFTLGLAQCAQVMSLSTILAAIVNHLQNSIQEDKLSGDRIKQVMEHIWKLQEFCNSMANWDIDGYEYAYLKAIVLFSPDHPGLTSTSQIEKFQEKAQMELQDYVQKTYSEDTYRLARILVRLPALRLMSSNITEELFFTGLIGNVSIDSIIPYILKMETAEYNGQITGVSL | – | repressed | repress | Down | – | –
TR2: human testicular orphan nuclear receptor 2, 603 amino acids (protein, UniProt P13056 1-603, looked up, full-length, human testicular orphan nuclear receptor 2, 603 amino acids) MATIEEIAHQIIEQQMGEIVTEQQTGQKIQIVTALDHNTQGKQFILTNHDGSTPSKVILARQDSTPGKVFLTTPDAAGVNQLFFTTPDLSAQHLQLLTDNSPDQGPNKVFDLCVVCGDKASGRHYGAVTCEGCKGFFKRSIRKNLVYSCRGSKDCIINKHHRNRCQYCRLQRCIAFGMKQDSVQCERKPIEVSREKSSNCAASTEKIYIRKDLRSPLTATPTFVTDSESTRSTGLLDSGMFMNIHPSGVKTESAVLMTSDKAESCQGDLSTLANVVTSLANLGKTKDLSQNSNEMSMIESLSNDDTSLCEFQEMQTNGDVSRAFDTLAKALNPGESTACQSSVAGMEGSVHLITGDSSINYTEKEGPLLSDSHVAFRLTMPSPMPEYLNVHYIGESASRLLFLSMHWALSIPSFQALGQENSISLVKAYWNELFTLGLAQCWQVMNVATILATFVNCLHNSLQQDKMSTERRKLLMEHIFKLQEFCNSMVKLCIDGYEYAYLKAIVLFSPDHPSLENMEQIEKFQEKAYVEFQDYITKTYPDDTYRLSRLLLRLPALRLMNATITEELFFKGLIGNIRIDSVIPHILKMEPADYNSQIIGHSI | suppress | – | – | Down | strongly suppresses | suppress
